From patent publication US20250243471A1

What was measured:
[1] = molecular target: PhiV-1 gp19 large terminase subunit (coliphage PhiV-1); assay: cell-based or functional assay
[2] = molecular target: PhiV-1 gp8 portal protein (coliphage PhiV-1); assay: cell-based or functional assay
[3] = molecular target: PhiV-1 gp8 portal protein (coliphage PhiV-1); assay: cryo-EM structure of the EcAvs4-portal complex
[4] = molecular target: EcAvs4 Q63A/K65A with internal TwinStrep tag between residues 114 and 115 (cryo-EM construct) (Escherichia coli NCTC11132); assay: cryo-EM; interface between adjacent STAND ATPase domains in the portal-bound EcAvs4 tetramer
[5] = molecular target: PhiV-1 gp19 large terminase subunit (coliphage PhiV-1); assay: cryo-EM structure of the SeAvs3-terminase complex
[6] = molecular target: PhiV-1 gp19 terminase with StrepTag (gp19-StrepTag) (coliphage PhiV-1); assay: tandem affinity purification (Ni-NTA, Strep-Tactin), Superose 6 Increase peak, SDS-PAGE band intensity
[7] = molecular target: SeAvs3 from Salmonella enterica NCTC13175 with C-terminal 6xHis tag (purified recombinant) (Salmonella enterica NCTC13175); assay: cryo-EM; interface between adjacent STAND ATPase domains in the terminase-bound SeAvs3 tetramer

EcAvs4 from Escherichia coli NCTC11132 expressed in E. coli (genetic assays) (receptor)
Abundance relative to E. coli NovaBlue control (PhiV-1 fragment screen, deep sequencing of surviving plasmids) [1]: 0.11
Abundance relative to E. coli NovaBlue control (PhiV-1 fragment screen, deep sequencing of surviving plasmids) [2]: < 0.0001

EcAvs4 Q63A/K65A with internal TwinStrep tag between residues 114 and 115 (cryo-EM construct) (receptor)
buried solvent-accessible surface area [3]: 5800 Å2
buried surface area [4]: 1230 Å^2

SeAvs3 from Salmonella enterica NCTC13175 expressed in E. coli (genetic assays) (receptor)
Abundance relative to E. coli NovaBlue control (PhiV-1 fragment screen, deep sequencing of surviving plasmids) [1]: < 0.0001
Abundance relative to E. coli NovaBlue control (PhiV-1 fragment screen, deep sequencing of surviving plasmids) [2]: 0.65

SeAvs3 from Salmonella enterica NCTC13175 with C-terminal 6xHis tag (purified recombinant) (receptor)
buried solvent-accessible surface area [5]: > 3700 Å2
ratio of SeAvs3 and gp19 in the complex peak (SeAvs3:gp19 ratio) [6]: 1
buried surface area [7]: 436 Å^2
